Laboratory results as given in IntAct's records for PubMed 22913516.

Biological target: kcc2b_mouse Camk2b (UniProt P28652)
Sequence (P28652 whole entry): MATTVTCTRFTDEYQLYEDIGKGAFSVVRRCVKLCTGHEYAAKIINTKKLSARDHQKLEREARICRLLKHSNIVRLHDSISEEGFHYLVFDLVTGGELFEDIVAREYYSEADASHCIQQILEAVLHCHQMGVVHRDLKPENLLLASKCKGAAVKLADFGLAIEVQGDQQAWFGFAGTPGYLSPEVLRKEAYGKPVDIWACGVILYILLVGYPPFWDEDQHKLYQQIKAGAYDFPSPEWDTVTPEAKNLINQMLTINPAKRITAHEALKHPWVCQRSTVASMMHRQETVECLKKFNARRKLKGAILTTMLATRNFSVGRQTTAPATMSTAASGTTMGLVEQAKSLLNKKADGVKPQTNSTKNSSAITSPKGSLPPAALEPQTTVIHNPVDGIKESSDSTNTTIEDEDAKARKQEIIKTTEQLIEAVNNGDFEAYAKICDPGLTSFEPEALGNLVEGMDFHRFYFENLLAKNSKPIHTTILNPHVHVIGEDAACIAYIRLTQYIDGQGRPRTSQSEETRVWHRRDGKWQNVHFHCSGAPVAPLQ

Ryanodine receptor 1 (Oryctolagus cuniculus (Rabbit)), P11716 S2843A
effect of a mutation on the interaction: decreasing interaction
